The assay has as its target human CEACAM5 on cells (human) (UniProt P06731). The experiment in a line: flow cytometry, hCEACAM5-B16F10 cells. (A flow cytometer gives signals particle by particle.)

human CEACAM5 on cells (human), sequence (P06731 35-685 limits assumed): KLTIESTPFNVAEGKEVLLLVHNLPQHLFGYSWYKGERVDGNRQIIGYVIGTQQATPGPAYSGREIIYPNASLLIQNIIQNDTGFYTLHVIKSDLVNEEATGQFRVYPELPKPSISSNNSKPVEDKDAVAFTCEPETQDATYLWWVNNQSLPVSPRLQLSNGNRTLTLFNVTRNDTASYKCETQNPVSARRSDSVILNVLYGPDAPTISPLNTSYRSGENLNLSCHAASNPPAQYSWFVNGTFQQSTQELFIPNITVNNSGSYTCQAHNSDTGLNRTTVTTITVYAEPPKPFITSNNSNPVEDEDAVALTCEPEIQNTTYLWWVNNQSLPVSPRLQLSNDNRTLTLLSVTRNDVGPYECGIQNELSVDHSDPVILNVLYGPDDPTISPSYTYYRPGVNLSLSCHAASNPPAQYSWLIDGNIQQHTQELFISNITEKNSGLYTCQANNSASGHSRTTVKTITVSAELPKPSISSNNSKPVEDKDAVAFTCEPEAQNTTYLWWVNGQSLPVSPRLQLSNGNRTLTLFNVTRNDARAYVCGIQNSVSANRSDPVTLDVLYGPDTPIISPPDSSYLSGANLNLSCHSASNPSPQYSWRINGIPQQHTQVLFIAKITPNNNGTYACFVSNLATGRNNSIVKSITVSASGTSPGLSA

B1: mAB0621 mouse surrogate duobody TriNKET (bispecific antibody, part only; not given: NKG2D arm, mouse constant regions, V domains shown, part only)
VH: QVQLVQSGAEVKKPGASVKVSCKASGYTFTAYTIHWVRQAPGQCLEWMGYINPSSGYTEYNQKFKDRTTLTADTSISTAYMELSRLRSDDTAVYYCTREGGLLWFDYWGQGTLVTVSS
VL: DIVMTQSPDSLAVSLGERATINCKSSHSLLYGNFQNNYLAWYQQKPGQPPKLLIYWASTRESGVPDRFSGSGSGTDFTLTISSLQAEDVAVYYCQQYYSYPYTFGCGTKLEIK
The EC50 is the concentration that produces a half-maximal response. Read a high EC50 as a need for much substance. B1 gave an EC50 of 0.0218 µM.

The values are drawn from patent US20240124607A1.
